The text below walks through data of patent US20150218244A1.

In this experiment the target is IL-10 receptor (IL-10R) on freshly isolated primary blood monocytes (human) (UniProt Q13651). As to the kind of experiment: cell-based or functional assay.
Chain of IL-10 receptor (IL-10R) on freshly isolated primary blood monocytes (human) (Q13651 22-578, chain 1 of 2): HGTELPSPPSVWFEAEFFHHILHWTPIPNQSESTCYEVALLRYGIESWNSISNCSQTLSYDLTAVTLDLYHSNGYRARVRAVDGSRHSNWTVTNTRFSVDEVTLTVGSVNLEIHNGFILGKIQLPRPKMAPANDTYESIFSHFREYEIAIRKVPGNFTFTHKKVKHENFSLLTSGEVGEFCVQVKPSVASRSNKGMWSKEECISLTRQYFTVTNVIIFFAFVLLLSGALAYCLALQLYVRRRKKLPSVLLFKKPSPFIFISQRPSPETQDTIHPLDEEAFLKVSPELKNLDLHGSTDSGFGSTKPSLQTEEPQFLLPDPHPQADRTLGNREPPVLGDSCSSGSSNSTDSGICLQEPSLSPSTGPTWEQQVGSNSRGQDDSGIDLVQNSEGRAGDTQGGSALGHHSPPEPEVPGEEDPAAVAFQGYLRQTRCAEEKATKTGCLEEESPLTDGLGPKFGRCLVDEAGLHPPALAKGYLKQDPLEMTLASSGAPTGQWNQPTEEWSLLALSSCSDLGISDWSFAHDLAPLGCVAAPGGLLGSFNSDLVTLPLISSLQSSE
Chain of IL-10 receptor (IL-10R) on freshly isolated primary blood monocytes (human) (Q08334 20-325, chain 2 of 2, further chain): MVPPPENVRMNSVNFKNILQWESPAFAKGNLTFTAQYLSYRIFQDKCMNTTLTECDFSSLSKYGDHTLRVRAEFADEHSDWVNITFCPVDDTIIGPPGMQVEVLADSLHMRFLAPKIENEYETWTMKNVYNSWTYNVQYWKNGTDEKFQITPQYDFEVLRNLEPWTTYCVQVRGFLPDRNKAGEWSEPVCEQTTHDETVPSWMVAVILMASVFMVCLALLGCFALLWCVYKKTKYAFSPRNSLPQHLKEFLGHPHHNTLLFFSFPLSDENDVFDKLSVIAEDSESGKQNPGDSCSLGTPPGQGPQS

The substance “recombinant wild type human IL-10 (from UniProt P22301 19-178) (ligand)” displayed an EC50 [nM] pSTAT3 induction of 0.017 nM; an EC50 [nM] pSTAT3 induction, Donor 1 of 0.029 nM; an EC50 [nM] pSTAT3 induction, Donor 2 of 0.019 nM; an EC50 [nM] pSTAT3 induction, Donor 3 of 0.021 nM.
